Experiments:
[1] = biological target: transcription factor GLI, the mammalian homologue of the Drosophila cubitus interruptus (Ci)
[2] = biological target: Myelin Basic Protein (Sigma)

| GLI activity, luciferase reporter p9XGliLuc in C3H10T1/2 cells [1] [fold] | amount of 32P incorporated into MBP, in vitro kinase assay on anti-HA immunoprecipitates (times higher compared to controls) [2] | Substance |
| --- | --- | --- |
| 9.5 |  | human fused (wild type, full length), HA epitope tagged |
|  | 2 | human fused (wild type, full length), HA epitope tagged (enzyme) |
|  | 3 | fused KD (kinase domain of human fused alone), HA epitope tagged (enzyme) |
